# Measured values reported in US20050064507A1, “Determining kinase specificity” (priority 2003, published 2005).
# Assays:
# [1] = biological target: T1, PKC-epsilon (Homo sapiens, UniProt Q02156); assay: In vitro kinase assay: peptide phosphorylation by PKC-epsilon; format: biochemical; details: peptide concentration 1 uM
# T1 construct: purchased Calbiochem
# T1 sequence (Q02156 1-737): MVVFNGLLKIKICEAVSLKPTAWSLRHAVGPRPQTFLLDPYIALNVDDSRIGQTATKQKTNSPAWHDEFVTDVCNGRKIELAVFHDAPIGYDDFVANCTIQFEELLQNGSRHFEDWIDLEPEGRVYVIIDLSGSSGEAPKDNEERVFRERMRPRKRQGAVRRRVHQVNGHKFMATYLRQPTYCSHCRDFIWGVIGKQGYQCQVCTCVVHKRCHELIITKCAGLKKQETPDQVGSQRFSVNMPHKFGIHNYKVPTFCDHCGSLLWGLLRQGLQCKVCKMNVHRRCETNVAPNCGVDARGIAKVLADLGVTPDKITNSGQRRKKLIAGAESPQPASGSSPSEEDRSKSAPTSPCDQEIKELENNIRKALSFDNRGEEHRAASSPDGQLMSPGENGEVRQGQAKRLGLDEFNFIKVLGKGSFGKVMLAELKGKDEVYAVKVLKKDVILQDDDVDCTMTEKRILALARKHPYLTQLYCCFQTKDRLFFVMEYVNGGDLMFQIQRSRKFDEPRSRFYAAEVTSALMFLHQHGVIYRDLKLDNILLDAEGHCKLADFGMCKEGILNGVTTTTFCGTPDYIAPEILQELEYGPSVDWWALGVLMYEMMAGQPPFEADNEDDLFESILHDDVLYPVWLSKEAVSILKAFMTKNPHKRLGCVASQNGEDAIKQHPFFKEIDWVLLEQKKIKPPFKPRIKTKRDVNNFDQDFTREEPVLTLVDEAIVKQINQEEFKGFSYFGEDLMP
# Method: Catalytically active preparations of the kinases of interest were either purchased or prepared. Purchased and tested active kinase preparations including the following: PKC-alpha, PKC-delta, PKC-epsilon, PKC-zeta, PKC-mu, PKA, PKG from Calbiochem, ROK alpha/ROCK-II, active from Upstate Biotechnology, and AKT1 from Panvera.
# (§1) The conditions of the kinase assay and the amount of active kinase used varied with the kinase and with the accuracy needed. For a typical experiment, 5-20 ng of kinase was used per well and each peptide pool was assayed in duplicate wells. Note that the absolute amount of kinase used was not usually a critical parameter, because the desired information related to specificity of the kinase not its absolute activity, and robustness of the assay depends on comparisons of the same amount of kinase on different peptides. The combination of kinase concentration and assay duration was modified to assure that the stoichiometry of peptide phosphorylation never exceeded 5%. The choice of kinase buffer depended on the kinase being analyzed. For studies of PKC, 100 mM HEPES, 0.05% Triton-X100, 1 mM CaCl2, 20 mM MgCl2, 0.2 mg/ml phosphatidyl serine (Avanti Polar Lipids), PMA 100 ng/ml was typically used. The lipid stock was prepared by transferring 3 mg phosphatidyl serine into iced mixture of 450 μl water plus 50 μl of 10% Triton-X100, sonicating 10 times on ice for 1 sec each.
# (§2) The kinase reaction mixture was assembled by sequential addition to a tube held on ice of: 5 μl peptide (100 μM for final concentration of 10 μM), 15 μl of kinase (typically 5 ng/well, in appropriate kinase buffer), 30 μl of ATP (1 uCi/well of ^32P-gamma ATP in a stock of 167 μM cold ATP in the kinase buffer; for final concentration for 100 μM ATP). The mixture was rapidly warmed to desired reaction temperature (30° C. for PKC) and incubated for the desired duration (usually 10 minutes). The kinase assay was terminated by transfer to 4° C. water batch, and rapid addition of an equal volume (50 μl) of stop solution [0.1M ATP+0.1M EDTA in water, pH 8].
# (§3) The peptides were then captured from the reaction mixture by transfer to a Reacti-Bind Streptavidin High Binding Capacity Coated Plates (HBC) (Pierce Biotechnology) as follows. The HBC plates were pre-rinsed three times with PBS/Tween PBS/Tween20 0.05% (PBS/Tween). Part of all of the reaction mixture was then transferred wells of a HBC plate pre-filled with 90 μl of phosphate-buffered saline (PBS); typically each aliquots of each phosphorylation reaction were transferred to duplicate HBC plates to assure accuracy by additional replication
# For kinase assays done at the standard peptide concentration of 10 μM, the peptide concentration in the reaction mixture becomes 5 μM after addition of the stop solution; consequently 10 μl of the reaction (50 pMoles of peptide) was transferred to the HBC plate. More generally, the amount of reaction mixture transferred was estimated to be about 50 pMoles of peptide. […] The HBC plates were incubated for 0.5 to 1.5 hr at room temperature for complete binding of biotinylated peptides to plate-bound streptavidin. The HBC plates were then washed extensively with PBS/Tween. Five washes were done routinely and additional wash steps were added if the wash solution removed from the plate had measurable radioactivity as detected using a Geiger counter. This step is essential to obtaining a good the signal to noise ratio because the fraction of radioactivity incorporated in the peptides was a tiny fraction of the total in the reaction mixture. The wells were air-dried. A volume of 40-50 μl of microScint-20 (Packard Instruments) was added to each well. The plates were covered with stick-on film sheet. Radioactive emissions were measured in a TopCount NXT Microplate Scintillation and Luminescence Counter (Packard Instruments). Typically samples were counted for 5 minutes (or more) to improve the signal to noise ratio when counts were low. […]
# [2] = tested on: PKC; assay: In vitro phosphorylation by PKC (average of isoforms alpha, epsilon, delta, theta); format: biochemical; details: average over PKC-theta, -epsilon and -alpha at 10 and 1 uM peptide, relative to best substrate
# Method: as §1, §2, §3
# For kinase assays done at the standard peptide concentration of 10 μM, the peptide concentration in the reaction mixture becomes 5 μM after addition of the stop solution; consequently 10 μl of the reaction (50 pMoles of peptide) was transferred to the HBC plate. More generally, the amount of reaction mixture transferred was estimated to be about 50 pMoles of peptide. […] The HBC plates were incubated for 0.5 to 1.5 hr at room temperature for complete binding of biotinylated peptides to plate-bound streptavidin. The HBC plates were then washed extensively with PBS/Tween. Five washes were done routinely and additional wash steps were added if the wash solution removed from the plate had measurable radioactivity as detected using a Geiger counter. This step is essential to obtaining a good the signal to noise ratio because the fraction of radioactivity incorporated in the peptides was a tiny fraction of the total in the reaction mixture. The wells were air-dried. A volume of 40-50 μl of microScint-20 (Packard Instruments) was added to each well. The plates were covered with stick-on film sheet. Radioactive emissions were measured in a TopCount NXT Microplate Scintillation and Luminescence Counter (Packard Instruments). Typically samples were counted for 5 minutes (or more) to improve the signal to noise ratio when counts were low.
# Many peptides that are good substrates for PKC enzymes were identified using the methods of the invention. For example, Tables 4 and 5 provide a listing of peptides identified as potentially useful kinase substrates. […]
Substance,phosphorylation by PKC epsilon [1],"average (phosphorylation by PKC-theta, -delta, -epsilon, -alpha) [2]"
126 (KAIKAIEGGQKFARKSTRRS) [compound 126],69,46
127 (SQVQKQRSAGSFKRNSIKKI) [compound 127],32,43
128 (QQVDRERPHVRRRRGTFKRS) [compound 128],32,42
129 (VQRHRSMRKTFARYLSFRRD) [compound 129],65,40
130 (EYLERRASRRRAV) [compound 130],46,39
131 (WKGKRRSKARKKRK) [compound 131],43,38
132 (GFLNEPLSSKSQRRKSLKLK) [compound 132],47,38
133 (LEKRGMLGKRPRRKSSRRKK) [compound 133],31,37
134 (RSRSRSRSKSKDKRKSRKRS) [compound 134],32,34
135 (KKKFRTPSFLKKSKK) [compound 135],27,33
136 (RARRDSLKKIEIW) [compound 136],33,32
137 (PSKSPSKKKKKFRTPSFLKK) [compound 137],32,31
138 (EYLERRASRRRAV) [compound 138],27,31
139 (RPTPGDGEKRSRIKKSKKRK) [compound 139],24,30
140 (TELEGGFSRQRKRKLSFRRR) [compound 140],27,30
141 (VTDSQKRREILSRRPSYRKI) [compound 141],31,29
142 (ERHVAQKKSRLRRRASQLKI) [compound 142],28,28
143 (VRYTPYTISPYNRKGSFRKQ) [compound 143],21,28

Substance,phosphorylation by PKC epsilon [1],"average (phosphorylation by PKC-theta, -delta, -epsilon, -alpha) [2]"
144 (LSSMFGTLPRKSRKGSVRKQ) [compound 144],24,28
145 (ISDFGLAKKLAVGRHSFSRR) [compound 145],26,27
146 (QAQRQIKRGAPPRRSSIRNA) [compound 146],28,27
147 (RDIRQSPKRGFLRSASLGRR) [compound 147],26,26
154 (KKFFTQGWAGWRKKTSFRKP) [compound 154],29,22
155 (RWDKRRWRKIPKRPGSVHRT) [compound 155],26,21
156 (SAQITIPKDGQKRKKSLRKK) [compound 156],18,20
157 (PSPSNETPKKKKKRFSFKKS) [compound 157],12,20
158 (VQMTWSYPDEKNKRASVRRR) [compound 158],11,19
159 (LYARLARAYRRSQRASFKRA) [compound 159],25,19
160 (PFEVVWYKDKRQLRSSKKYK) [compound 160],13,18
161 (KYKAFIRIPIPTRRHTFRRQ) [compound 161],21,18
162 (KKKFSFKKPFKLSGLSFKRN) [compound 162],19,17
163 (PPRTPGWHQLQPRRVSFRGE) [compound 163],14,16
164 (TEGKMARVAWKGKRRSKARK) [compound 164],12,16
165 (TEEKSKKRKKKHRKNSRKHK) [compound 165],12,16
166 (MAQIERGEARIQRRISIKKA) [compound 166],10,15
167 (GLPAPGEDKSIYRRGSRRWR) [compound 167],6,15
